Reference: paper PMC7586746, “A putative nuclear copper chaperone promotes plant immunity in Arabidopsis” (Journal of Experimental Botany, 2020)
Values belong to the binder of their own block, whether it stands above or below them.

Tests used:
NPR1 = NPR1 (UniProt P93002 1-593); test: EMSA; NPR1 alone; LightShift EMSA kit: 500 ng GST-tagged protein, 4 fmol biotin-LS7 probe, 20 ul with 1 ul dI-dC, 1 ul 50% glycerol, kit 10x binding buffer, 20 min, 25 C; 6% native gel; salt and pH not stated; conditions: protein: recombinant; tags: GST (N-terminal); blunt
TGA2;NPR1 = TGA2;NPR1 (Arabidopsis thaliana?;Arabidopsis …, UniProt P43273;P93002 1-330;1-593, |); test: EMSA; with NPR1; substantially more probe bound than TGA2 alone; LightShift EMSA kit: 500 ng GST-tagged protein, 4 fmol biotin-LS7 probe, 20 ul with 1 ul dI-dC, 1 ul 50% glycerol, kit 10x binding buffer, 20 min, 25 C; 6% native gel; salt and pH not stated; conditions: protein: recombinant;recombinant; tags: GST (N-terminal);GST (N-terminal); blunt
GST–NPR1 = target: T1, GST–NPR1 (UniProt P93002 1-593); test: pull-down; GST pull-down in vitro of His-CCP and His-TGA2 added together, in the presence of Cu^2+ (Supplementary Fig. S13); conditions: both partners purified
T1 construct: NPR1 (non-expressor of pathogenesis-related gene 1), cloned into pGEX-4T-1; source: E. coli BL21, purified
T1 sequence (looked up): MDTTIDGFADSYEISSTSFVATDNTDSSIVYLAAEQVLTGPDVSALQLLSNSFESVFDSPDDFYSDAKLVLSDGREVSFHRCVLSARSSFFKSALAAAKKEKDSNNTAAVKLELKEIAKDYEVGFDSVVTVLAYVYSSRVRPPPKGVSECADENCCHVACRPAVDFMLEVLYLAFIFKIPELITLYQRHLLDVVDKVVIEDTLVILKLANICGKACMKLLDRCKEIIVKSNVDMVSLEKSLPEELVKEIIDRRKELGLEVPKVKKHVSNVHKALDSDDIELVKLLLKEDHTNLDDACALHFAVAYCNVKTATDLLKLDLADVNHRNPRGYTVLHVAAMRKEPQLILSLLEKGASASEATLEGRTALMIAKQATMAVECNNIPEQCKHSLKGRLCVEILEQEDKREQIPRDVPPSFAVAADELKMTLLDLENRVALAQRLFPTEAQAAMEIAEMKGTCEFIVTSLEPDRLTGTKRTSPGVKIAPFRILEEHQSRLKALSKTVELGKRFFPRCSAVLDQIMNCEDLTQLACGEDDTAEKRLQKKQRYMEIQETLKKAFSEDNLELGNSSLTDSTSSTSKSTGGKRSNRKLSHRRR

B1: LS7 probe (PR1 promoter) (dsDNA)
DNA 1: TATTTTACTTACGTCATAGATGTGGCGGCA
DNA 2: TGCCGCCACATCTATGACGTAAGTAAAATA
binding result (NPR1): no binding
binding result (TGA2;NPR1): binds

binding result (GST–NPR1): binds
B2: His-TGA2 (natural protein, UniProt P43273 1-330, looked up)
chain: MADTSPRTDVSTDDDTDHPDLGSEGALVNTAASDSSDRSKGKMDQKTLRRLAQNREAARKSRLRKKAYVQQLENSRLKLTQLEQELQRARQQGVFISGTGDQAHSTGGNGALAFDAEHSRWLEEKNKQMNELRSALNAHAGDSELRIIVDGVMAHYEELFRIKSNAAKNDVFHLLSGMWKTPAERCFLWLGGFRSSELLKLLANQLEPMTERQLMGINNLQQTSQQAEDALSQGMESLQQSLADTLSSGTLGSSSSGNVASYMGQMAMAMGKLGTLEGFIRQADNLRLQTLQQMIRVLTTRQSARALLAIHDYFSRLRALSSLWLARPRE
notes: transcription factor TGA2
